T1: Thermus thermophilus BHBDh (TtBHBDh), wild type, SEQ ID NO: 3 (Thermus thermophilus, UniProt Q5SKF0)
T1 sequence (Q5SKF0 1-251): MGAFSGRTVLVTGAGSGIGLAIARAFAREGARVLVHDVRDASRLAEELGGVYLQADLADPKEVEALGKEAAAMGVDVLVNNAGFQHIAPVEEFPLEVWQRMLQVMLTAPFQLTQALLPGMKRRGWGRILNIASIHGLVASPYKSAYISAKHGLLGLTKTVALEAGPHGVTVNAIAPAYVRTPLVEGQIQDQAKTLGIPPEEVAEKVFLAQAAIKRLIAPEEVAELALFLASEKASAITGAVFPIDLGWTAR


Tests used:
[1] = target: T1, Thermus thermophilus BHBDh (TtBHBDh), wild type, SEQ ID NO: 3; assay: BHB concentration-dependent BHBDh activity of TtBHBDh (NADH detection, absorbance at 340 nm); type: biochemical; conditions: 1 mM NAD+, 10 mM HEPES pH 7.8, 0 mM MgCl2, 0-50 mM BHB, room temperature; read-out: Km toward BHB
Method: The activity was measured using NADH detection via absorbance at 340 nm, at room temperature. The measurement was done in a solution with 1 mM NAD^+, 10 mM HEPES at pH 7.8, and 0 mM MgCl2·6 H2O, from 0-50 mM BHB.

[2] = substrate: C[C@@H](O)CC(=O)O; assay: NAD dependent BHB dehydrogenase activity of AfBHBDh; type: biochemical, Alcaligenes faecalis

| Molecule | Km [1] [µM] | Km [2] [mM] | Vmax [2] [µmol/min/mg] |
| --- | --- | --- | --- |
| C[C@@H](O)CC(=O)O [BHB, R-3-hydroxybutyrate] | 359 |  |  |
| (Alcaligenes faecalis) (protein) MLKGKKAVVTGSTSGIGLAMATELAKAGADVVINGFGQPEDIERERSTLESKFGVKAYYLNADLSDAQATRDFIAKAAEALGGLDILVNNAGIQHTAPIEEFPVDKWNAIIALNLSAVFHGTAAALPIMQKQGWGRIINIASAHGLVASVNKSAYVAAKHGVVGLTKVTALENAGKGITCNAICPGWVRTPLVEKQIEAISQQKGIDIEAAARELLAEKQPSLQFVTPEQLGGAAVFLSSAAADQMTGTTLSLDGGWTAR |  | 1.13 | 223 |
